Source: patent US20160160263

T1: YGRAAA (SEQ ID NO: 17), uPA selective substrate
T1 chain: YGRAAA

T2: TIAH/LH, MMP2 selective substrate
T2 chain: TIAHLH

B1: tissue plasminogen activator (tPA) (protein)
chain: SYQVICRDEKTQMIYQQHQSWLRPVLRSNRVEYCWCNSGRAQCHSVPVKSCSEPRCFNGGTCQQALYFSDFVCQCPEGFAGKCCEIDTRATCYEDQGISYRGTWSTAESGAECTNWNSSALAQKPYSGRRPDAIRLGLGNHNYCRNPDRDSKPWCYVFKAGKYSSEFCSTPACSEGNSDCYFGNGSAYRGTHSLTESGASCLPWNSMILIGKVYTAQNPSAQALGLGKHNYCRNPDGDAKPWCHVLKNRRLTWEYCDVPSCSTCGLRQYSQPQFRIKGGLFADIASHPWQAAIFAKHRRSPGERFLCGGILISSCWILSAAHCFQERFPPHHLTVILGRTYRVVPGEEEQKFEVEKYIVHKEFDDDTYDNDIALLQLKSDSSRCAQESSVVRTVCLPPADLQLPDWTECELSGYGKHEALSPFYSERLKEAHVRLYPSSRCTSQHLLNRTVTDNMLCAGDTRSGGPQANLHDACQGDSGGPLVCLNDGRMTLVGIISWGLGCGQKDVPGVYTKVTNYLDWIRDNMRP
B2: MMP-2 (protein)
chain: YNFFPRKPKWDKNQITYRIIGYTPDLDPETVDDAFARAFQVWSDVTPLRFSRIHDGEADIMINFGRWEHGDGYPFDGKDGLLAHAFAPGTGVGGDSHFDDDELWTLGEGQVVRVKYGNADGEYCKFPFLFNGKEYNSCTDTGRSDGFLWCSTTYNFEKDGKYGFCPHEALFTMGGNAEGQPCKFPFRFQGTSYDSCTTEGRTDGYRWCGTTEDYDRDKKYGFCPETAMSTVGGNSEGAPCVFPFTFLGNKYESCTSAGRSDGKMWCATTANYDDDRKWGFCPDQGYSLFLVAAHEFGHAMGLEHSQDPGALMAPIYTYTKNFRLSQDDIKGIQELYGASPDIDLGTGPTPTLGPVTPEICKQDIVFDGIAQIRGEIFFFKDRFIWRTVTPRDKPMGPLLVATFWPELPEKIDAVYEAPQEEKAVFFAGNEYWIYSASTLERGYPKPLTSLGLPPDVQRVDAAFNWSKNKKTYIFAGDKFWRYNEVKKKMDPGFPKLIADAWNAIPDNLDAVVDLQGGGHSYFFKGAYYLKLENQSLKSVKFGSIKSDWLGC

Key:
[1] = target: T1, YGRAAA (SEQ ID NO: 17), uPA selective …
[2] = target: T2, TIAH/LH, MMP2 selective substrate

Protein | cleavage of ACPP substrate by protease [1] | cleavage of ACPP substrate by protease [2]
B1 | to a lesser extent by tPA | –
B2 | – | selectively cleaved by MMP-2 versus 9 and 14
